Experiments:
Human CD3 E+G HuFc-6xHis = target: T1, Human CD3 E+G HuFc-6xHis (human); test: SPR (ProteOn XPR36), HuCD3E_HuCD3G-Fc amine-coupled, bispecific as analyte, Example 4B
T1 construct: also called hu CD3εγ-Fc
Method in brief: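 SPR kinetics with the bispecific constructs flowed as analyte over a directly amine-coupled (pH 4.5 acetate) human CD3εγ-Fc surface. Association runs 600 s and dissociation 1800 s, at 30 μl/min in PBS-T-EDTA.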

[1] = target: T2, human DLL3 (endogenous, on SCLC cell lines NCI-H82 and SHP77 and in SCLC tissue) (human, UniProt Q9NYJ7 27-618); test: flow cytometry titration on SHP77 cells, PE anti-human secondary, x-fold over background
T2 construct: whole, on cells; also called SCLC cell lines expressing DLL3
T2 sequence (looked up): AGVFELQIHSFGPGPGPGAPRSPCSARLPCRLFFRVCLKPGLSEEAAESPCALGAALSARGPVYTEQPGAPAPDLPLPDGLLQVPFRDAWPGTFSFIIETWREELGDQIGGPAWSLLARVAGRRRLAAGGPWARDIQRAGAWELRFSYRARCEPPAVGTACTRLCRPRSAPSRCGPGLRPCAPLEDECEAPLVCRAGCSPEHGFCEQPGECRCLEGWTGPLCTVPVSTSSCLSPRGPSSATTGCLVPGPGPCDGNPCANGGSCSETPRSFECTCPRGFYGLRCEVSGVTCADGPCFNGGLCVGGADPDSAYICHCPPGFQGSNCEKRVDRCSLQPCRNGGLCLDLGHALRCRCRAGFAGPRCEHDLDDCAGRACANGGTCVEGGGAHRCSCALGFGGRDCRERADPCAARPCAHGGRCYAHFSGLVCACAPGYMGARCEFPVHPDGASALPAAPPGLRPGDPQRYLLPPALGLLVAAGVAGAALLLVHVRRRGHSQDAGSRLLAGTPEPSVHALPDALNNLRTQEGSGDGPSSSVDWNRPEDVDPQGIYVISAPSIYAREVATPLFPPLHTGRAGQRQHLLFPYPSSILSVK
Source text: Cells (T cells or human SCLC cells) were stained with increasing concentrations of two-step purified DLL3/CD3 binding proteins with increasing concentrations in FACS buffer (PBS/0.5% BSA/0.05% sodium azide). Bound molecules were detected with PE-conjugated anti-human secondary antibody (Sigma-Aldrich, #P8047).

[2] = target: T3, EGF6+MEMBRANE PROXIMAL PEPTIDE; test: flow cytometry on HEK293 cells expressing the DLL3 subdomain construct, PE anti-human secondary, control: secondary antibody only
T3 construct: also called Hu DLL3 EGF6+membrane proximal peptide on HEK293 cells
T3 membrane-anchored DLL3 subdomain construct: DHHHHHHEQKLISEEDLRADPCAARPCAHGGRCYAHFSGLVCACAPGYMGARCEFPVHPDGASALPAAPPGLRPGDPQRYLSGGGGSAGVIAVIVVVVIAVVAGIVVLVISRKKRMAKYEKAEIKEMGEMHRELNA
Method in brief: (§1)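 Binders tested on HEK293 cells displaying the DLL3 subdomain construct; bound molecules detected by flow cytometry using PE-conjugated anti-human secondary antibody. Negative control: cells with secondary antibody only.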

EGF1+2 = target: T4, EGF1+2; test: as above
T4 construct: also called Hu DLL3 EGF1+2 on HEK293 cells
T4 membrane-anchored DLL3 subdomain construct: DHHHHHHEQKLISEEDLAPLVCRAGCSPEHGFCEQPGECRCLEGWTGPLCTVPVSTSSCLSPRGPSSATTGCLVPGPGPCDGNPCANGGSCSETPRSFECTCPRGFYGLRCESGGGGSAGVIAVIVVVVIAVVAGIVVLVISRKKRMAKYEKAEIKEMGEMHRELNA
Method in brief: as §1

EGF3+4 = target: T5, EGF3+4; test: as above
T5 construct: also called Hu DLL3 EGF3+4 on HEK293 cells
T5 membrane-anchored DLL3 subdomain construct: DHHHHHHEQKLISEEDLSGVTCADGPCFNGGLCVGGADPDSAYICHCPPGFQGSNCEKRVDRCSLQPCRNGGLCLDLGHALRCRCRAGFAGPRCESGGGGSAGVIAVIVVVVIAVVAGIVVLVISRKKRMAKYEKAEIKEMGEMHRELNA
Method in brief: as §1

EGF5+6 = target: T6, EGF5+6; test: as above
T6 construct: also called Hu DLL3 EGF5+6 on HEK293 cells
T6 membrane-anchored DLL3 subdomain construct: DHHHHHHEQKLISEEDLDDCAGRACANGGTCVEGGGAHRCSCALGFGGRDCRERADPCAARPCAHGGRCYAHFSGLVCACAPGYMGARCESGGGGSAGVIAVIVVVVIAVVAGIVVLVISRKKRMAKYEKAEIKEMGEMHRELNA
Method in brief: as §1

EGF4+5 = target: T7, EGF4+5; test: as above
T7 construct: also called Hu DLL3 EGF4+5 on HEK293 cells
T7 membrane-anchored DLL3 subdomain construct: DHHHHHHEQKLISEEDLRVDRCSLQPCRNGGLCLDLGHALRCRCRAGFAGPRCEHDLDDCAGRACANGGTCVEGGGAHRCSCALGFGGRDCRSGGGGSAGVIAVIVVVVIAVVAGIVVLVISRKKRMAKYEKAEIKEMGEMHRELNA
Method in brief: as §1

EGF2+3 = target: T8, EGF2+3; test: as above
T8 construct: also called Hu DLL3 EGF2+3 on HEK293 cells
T8 membrane-anchored DLL3 subdomain construct: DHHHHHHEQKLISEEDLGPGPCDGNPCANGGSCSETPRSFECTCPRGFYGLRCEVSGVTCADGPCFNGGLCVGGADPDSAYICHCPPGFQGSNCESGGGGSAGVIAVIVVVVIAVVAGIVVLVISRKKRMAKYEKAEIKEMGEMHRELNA
Method in brief: as §1

T1 sequence (chain, as listed by the source limits assumed): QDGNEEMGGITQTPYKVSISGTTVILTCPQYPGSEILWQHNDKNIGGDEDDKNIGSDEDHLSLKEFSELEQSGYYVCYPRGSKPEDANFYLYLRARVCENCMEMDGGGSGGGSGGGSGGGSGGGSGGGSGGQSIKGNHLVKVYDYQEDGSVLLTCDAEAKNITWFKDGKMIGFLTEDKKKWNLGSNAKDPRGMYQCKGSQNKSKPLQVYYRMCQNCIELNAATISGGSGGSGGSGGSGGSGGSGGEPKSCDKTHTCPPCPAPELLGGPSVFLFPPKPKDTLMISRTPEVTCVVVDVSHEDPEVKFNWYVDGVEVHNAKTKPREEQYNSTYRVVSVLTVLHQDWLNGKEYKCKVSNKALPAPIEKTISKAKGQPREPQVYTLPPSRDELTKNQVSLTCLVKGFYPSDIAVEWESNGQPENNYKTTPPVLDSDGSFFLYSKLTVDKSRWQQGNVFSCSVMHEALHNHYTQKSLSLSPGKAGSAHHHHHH

B1: DLL3#18/CD3#1 (bispecific antibody, human IgG1, kappa, lambda, L234A L235A)
chain 1: DIQMTQSPASLAASVGETVTITCRASENIYYSLAWYQQKQGKSPQLLIYNANSLEDGVPSRFSGSGSGTQYSMKINNMQPEDTATYFCKQAYDVPLTFGAGTKLELKRTVAAPSVFIFPPSDEQLKSGTASVVCLLNNFYPREAKVQWKVDNALQSGNSQESVTEQDSKDSTYSLSSTLTLSKADYEKHKVYACEVTHQGLSSPVTKSFNRGECGGGGSEGKSSGSGSESKSTEGKSSGSGSESKSTGGGGSQVQLQQSGPDLVKPGASVKMSCEASGYTFTAYFIHWVKQKPGQGLEWIGYIDPFNDDTNYNVKFKGKATLTSDTSSSIAYMELSSLTSEDSSFYYCARGTSATLDYWGHGTTLTVSSASTKGPSVFPLAPSSKSTSGGTAALGCLVKDYFPEPVTVSWNSGALTSGVHTFPAVLQSSGLYSLSSVVTVPSSSLGTQTYICNVNHKPSNTKVDKRVEPKSCDKTHTCPPCPAPEAAGGPSVFLFPPKPKDTLMISRTPEVTCVVVDVSHEDPEVKFNWYVDGVEVHNAKTKPREEQYNSTYRVVSVLTVLHQDWLNGKEYKCKVSNKALPAPIEKTISKAKGQPREPQVYTLPPSREEMTKNQVSLWCLVKGFYPSDIAVEWESNGQPENNYKTTPPVLDSDGSFFLYSKLTVDKSRWQQGNVFSCSVMHEALHNHYTQKSLSLSPG
chain 2: EAVVTQEPSLTVSPGGTVTLTCRSSTGAVTTSNYANWVQEKPGQLPRGLIGGTNKRAPWVPARFSGSLLGGKAALTLSGAQPEDEAEYFCALWYSNLWVFGGGTKLTVLGQPKAAPSVTLFPPSSEELQANKATLVCLISDFYPGAVKVAWKADGSPVNTGVETTTPSKQSNNKYAASSYLSLTPEQWKSHRSYSCQVTHEGSTVEKTVAPAECSGGGGSEGKSSGSGSESKSTEGKSSGSGSESKSTGGGGSEVQLVESGGGLVQPGGSLKLSCAASGFTFNTYAMNWVRQAPGKGLEWVARIRSKYNNYATYYADSVKDRFTISRDDSKNTAYLQMNNLKTEDTAVYYCVRHGNFGNSYVSWFAYWGQGTLVTVSAASTKGPSVFPLAPSSKSTSGGTAALGCLVKDYFPEPVTVSWNSGALTSGVHTFPAVLQSSGLYSLSSVVTVPSSSLGTQTYICNVNHKPSNTKVDKRVEPKSCDKTHTCPPCPAPEAAGGPSVFLFPPKPKDTLMISRTPEVTCVVVDVSHEDPEVKFNWYVDGVEVHNAKTKPREEQYNSTYRVVSVLTVLHQDWLNGKEYKCKVSNKALPAPIEKTISKAKGQPREPQVYTLPPSREEMTKNQVSLSCAVKGFYPSDIAVEWESNGQPENNYKTTPPVLDSDGSFFLVSKLTVDKSRWQQGNVFSCSVMHEALHNRFTQKSLSLSPG
notes: Heterodimer of one DLL3 chain and one CD3 chain (scFab-Fc, knob-in-hole)
Human CD3 E+G HuFc-6xHis
  Kd: 3 nM
[1]
  EC50 (read off the curve): ~2 nM
[2]
  binding result: no binding (tested: 1.6 nM)
EGF1+2
  binding result: no binding (tested: 1.6 nM)
EGF3+4
  binding result: no binding (tested: 1.6 nM)
EGF5+6
  binding result: no binding (tested: 1.6 nM)
EGF4+5
  binding result: no binding (tested: 1.6 nM)
EGF2+3
  binding result: no binding (tested: 1.6 nM)

B2: DLL3#13/CD3#1 (bispecific antibody, human IgG1, kappa, lambda, L234A L235A)
chain 1: DVLMTQTPLSLPVSLGDQAAISCRSSQSIVHSNGNTYLEWYLQKPGQSPKVLIYKVSNRFSGVPDRFSGSGSGTDFTLKISRVEAEDLGVYYCFQGSHVPYTFGGGTKLEIKRTVAAPSVFIFPPSDEQLKSGTASVVCLLNNFYPREAKVQWKVDNALQSGNSQESVTEQDSKDSTYSLSSTLTLSKADYEKHKVYACEVTHQGLSSPVTKSFNRGECGGGGSEGKSSGSGSESKSTEGKSSGSGSESKSTGGGGSQIQLVQSGPELKKPGETVKISCKASGYTFTNYGVTWVKQAPGKGLKWMGWINTYSGAPTYADDFNGRFALSLETSASTAYLQINNLKNEDTATYFCARLDDYDLYYFDYWGQGTALTVSSASTKGPSVFPLAPSSKSTSGGTAALGCLVKDYFPEPVTVSWNSGALTSGVHTFPAVLQSSGLYSLSSVVTVPSSSLGTQTYICNVNHKPSNTKVDKRVEPKSCDKTHTCPPCPAPEAAGGPSVFLFPPKPKDTLMISRTPEVTCVVVDVSHEDPEVKFNWYVDGVEVHNAKTKPREEQYNSTYRVVSVLTVLHQDWLNGKEYKCKVSNKALPAPIEKTISKAKGQPREPQVYTLPPSREEMTKNQVSLWCLVKGFYPSDIAVEWESNGQPENNYKTTPPVLDSDGSFFLYSKLTVDKSRWQQGNVFSCSVMHEALHNHYTQKSLSLSPG
chain 2: B1 chain 2
notes: as for B1
Human CD3 E+G HuFc-6xHis
  Kd: 3 nM
[1]
  EC50 (read off the curve): ~2 nM
[2]
  binding result: no binding (tested: 1.6 nM)
EGF1+2
  binding result: no binding (tested: 1.6 nM)
EGF3+4
  binding result: no binding (tested: 1.6 nM)
EGF5+6
  binding result: no binding (tested: 1.6 nM)
EGF4+5
  binding result: no binding (tested: 1.6 nM)
EGF2+3
  binding result: no binding (tested: 1.6 nM)
